Reference: patent publication US8575110B2, “Peptidic nanoparticles as drug delivery and antigen display systems” (Alpha-O Peptides G, priority 2003, dated 2013)

B1: Trimer(Foldon)Cys11—Linker—COMP (protein)
chain: GSGYIPEAPRCGQAYVRKDGEWVLLSTFLGGSGLAPQMLRELQETNAALQDVRELLRQQVKQITFLKNTVMECDACG
B2: Trimer(Foldon)Cys11—COMP (protein)
chain: GSGYIPEAPRCGQAYVRKDGEWVLLSTFLGGLAPQMLRELQETNAALQDVRELLRQQVKQITFLKNTVMECDACG
notes: Recombinant foldon, two-glycine linker, COMP peptide; residue Asp 11 replaced by a cystein residue

Assay: Analytical ultracentrifugation (AUC) of assembled peptidic nanoparticles
Assay type: physicochemical

| Molecule | No. of monomers (Example 5 preparation 1 (dissolved directly, 2 mM DTT), 0.3 mg/ml) | No. of monomers (Example 5 preparation 1 (dissolved directly, 2 mM DTT), 0.6 mg/ml) | No. of monomers (Example 5 preparation 1 (dissolved directly, 2 mM DTT), 1.2 mg/ml) | No. of monomers (Example 5 preparation 2 (refolded from 8 M urea), 0.24 mg/ml) | No. of monomers (Example 5 preparation 2 (refolded from 8 M urea), 0.4 mg/ml) | No. of monomers (Example 5 preparation 2 (refolded from 8 M urea), 1.2 mg/ml) | No. of monomers (Example 5 preparation 2 (refolded from 8 M urea), concentration independent, one even unit) | No. of monomers (Example 4 preparation 1 (no DTT), 0.2 mg/ml) | No. of monomers (Example 4 preparation 2 (2 mM DTT), 0.2 mg/ml) |
| --- | --- | --- | --- | --- | --- | --- | --- | --- | --- |
| B1 | 10.1 | 9.8 | 11.3 | 15.1 | 14.3 | 14.8 | 15 | – | – |
| B2 | – | – | – | – | – | – | – | 9.0 | 11.2 |
